# Experimental data: patent US20180334496A1 (KODIAK SCIENCES, published 2018)
# Values joined by “and” are separate entries in the source; they are usually repeats but may differ in a detail not shown here. Equal entries are not always repeated.
# How the values were obtained:
# [1] = target: human Complement Factor D (CFD), purified from human serum (human, UniProt P00746 26-253); assay: cell-based or functional assay
# Histidine-tagged FcγRI = Histidine-tagged FcγRI (UniProt P12314 16-288, limits assumed); assay: SPR (Biacore T200, 25 C), His-tagged FcγRI captured on anti-His CM5 chip, antibody injected, single cycle kinetics
# Protocol: (§1) For Fcγ receptor Binding Kinetics on Biacore, all binding kinetics were performed at 25° C. using a BIAcore T200. Briefly, an anti-his antibody was immobilized on a CM5 chip. Histidine-tagged FcγRI (FIG. 15A and FIG. 15B) and FcγRIIIa (FIG. 16A and FIG. 16B) at a concentration of 0.5 μg/mL prepared in HBS-EP buffer (0.01M HEPES pH7.4, 0.15M NaCl, 3 mM EDTA, 0.005% Tween-20) were injected independently for 60-s using a flow rate of 5 μL/min in the active flow cell only. […] Following each run, flow cells were regenerated with a 60 s injection of 10 mM glycine pH 1.7 using a flow-rate of 50μ/mL. Data was double referenced, using subtraction of both reference flow cell and blank cycles. Analysis was performed using BIA evaluation software.
# [2] = target: Histidine-tagged FcγRIIIa (UniProt P08637 17-208, limits assumed); assay: SPR (Biacore T200, 25 C), His-tagged FcγRIIIa captured on anti-His CM5 chip, antibody injected, single cycle kinetics
# Protocol: as §1
# purified human C1q = target: T1, purified human C1q (human, UniProt P02745 23-245; P02746 28-253; P02747 29-245); assay: ELISA, antibody coated in a 1:2 titration from 10 ug/mL, purified human C1q at 5 ug/mL, HRP anti-human C1q
# T1 construct: also called Complement C1q
# Protocol: Complement engagement liabilities was assessed by C1q ELISA binding. Briefly, antibody panel was titrated 1:2 from a top concentration of 10 ug/mL in 1×PBS for overnight coating at 4 C. Plates were then blocked After a 2 hour blocking step in 1% BSA, purified human C1q was then applied at 5 ug/mL in 1% BSA for 2 hours at room temperature followed by detection with HRP-conjugated anti-human C1q antibody and TMB development.
# [3] = target: T2, serum purified human Complement Factor D (human, UniProt P00746 26-253); assay: SPR Biacore, antibody on protein A chip, single cycle kinetics, 25 C;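 also: antibodies captured to roughly 70 RU on the protein A surface in HBS-EP+ running buffer, with kinetic constants derived by BIAevaluation fitting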
# T2 construct: Serum purified protein flowed over the captured antibodies; also called CFD; human CFD
# Protocol: (§2) Antibodies were diluted to 0.5 ug/ml in HBS-EP+ buffer and captured on a protein A chip for 25 seconds to reach approximately 70 resonance units. […] Binding kinetic information was obtained by the BIAevaluation software (GE).
# [4] = target: T2, serum purified human Complement Factor D; assay: SPR Biacore, antibody on protein A chip, single cycle kinetics, 37 C;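 also: antibodies captured on the protein A surface to roughly 70 RU in HBS-EP+ buffer, with rate and affinity constants fitted using BIAevaluation software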
# Protocol: as §2
# [5] = target: T2, serum purified human Complement Factor D; assay: SPR Biacore, antibody on protein A chip, single cycle kinetics, 37 C; earlier run in the table (r34, Rmax 17.1);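 as to kon: antibodies captured on the protein A surface to roughly 70 RU in HBS-EP+ buffer, with rate and affinity constants fitted using BIAevaluation software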
# Protocol: as §2
# [6] = target: T2, serum purified human Complement Factor D; assay: SPR Biacore, antibody on protein A chip, single cycle kinetics, 25 C; earlier run in the table (r34, Rmax 14.8);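 as to koff: antibodies captured to roughly 70 RU on the protein A surface in HBS-EP+ running buffer, with kinetic constants derived by BIAevaluation fitting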;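 as to kon: antibodies captured to roughly 70 RU on the protein A surface in HBS-EP+ running buffer, with kinetic constants derived by BIAevaluation fitting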
# Protocol: as §2
# T2 sequence (P00746 26-253): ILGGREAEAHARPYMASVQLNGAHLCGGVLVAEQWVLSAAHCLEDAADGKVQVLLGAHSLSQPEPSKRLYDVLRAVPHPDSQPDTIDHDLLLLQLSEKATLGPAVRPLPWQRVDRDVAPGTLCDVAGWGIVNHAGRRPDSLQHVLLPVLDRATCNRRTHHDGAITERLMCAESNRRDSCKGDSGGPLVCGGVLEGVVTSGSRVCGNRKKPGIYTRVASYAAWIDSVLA
# Chain of human Complement Factor D (CFD), purified from human serum (P00746 26-253): as above
# T1 sequence (P02745 23-245 limits assumed, chain 1 of 3): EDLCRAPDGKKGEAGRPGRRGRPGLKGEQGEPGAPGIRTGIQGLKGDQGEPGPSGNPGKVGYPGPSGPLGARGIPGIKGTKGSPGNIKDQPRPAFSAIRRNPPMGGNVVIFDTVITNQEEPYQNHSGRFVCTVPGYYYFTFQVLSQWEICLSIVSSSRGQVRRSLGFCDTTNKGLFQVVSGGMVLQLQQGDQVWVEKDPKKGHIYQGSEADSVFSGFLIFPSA
# T1 sequence (P02746 28-253 limits assumed, chain 2 of 3): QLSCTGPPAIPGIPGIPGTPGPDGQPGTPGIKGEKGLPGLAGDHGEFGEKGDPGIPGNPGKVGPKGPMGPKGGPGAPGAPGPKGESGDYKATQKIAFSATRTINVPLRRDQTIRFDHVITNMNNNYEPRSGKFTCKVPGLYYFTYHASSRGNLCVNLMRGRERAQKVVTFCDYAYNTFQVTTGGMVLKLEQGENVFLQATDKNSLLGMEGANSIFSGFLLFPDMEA
# T1 sequence (P02747 29-245 limits assumed, chain 3 of 3): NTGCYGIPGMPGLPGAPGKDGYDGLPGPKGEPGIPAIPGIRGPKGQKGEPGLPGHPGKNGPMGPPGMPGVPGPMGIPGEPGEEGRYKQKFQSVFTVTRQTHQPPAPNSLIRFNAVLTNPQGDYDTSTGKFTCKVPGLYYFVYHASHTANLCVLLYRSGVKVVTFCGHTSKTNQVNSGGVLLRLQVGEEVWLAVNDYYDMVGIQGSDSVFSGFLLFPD
# Chain of Histidine-tagged FcγRI (P12314 16-288 limits assumed): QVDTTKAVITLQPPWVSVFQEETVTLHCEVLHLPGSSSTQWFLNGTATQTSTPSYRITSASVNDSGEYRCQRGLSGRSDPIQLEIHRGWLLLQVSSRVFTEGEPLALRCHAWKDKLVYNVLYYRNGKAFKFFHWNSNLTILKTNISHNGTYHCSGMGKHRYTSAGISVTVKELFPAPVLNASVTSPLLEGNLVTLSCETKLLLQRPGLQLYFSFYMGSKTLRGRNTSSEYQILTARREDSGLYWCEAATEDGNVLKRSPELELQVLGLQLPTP
# Chain of Histidine-tagged FcγRIIIa (P08637 17-208 limits assumed): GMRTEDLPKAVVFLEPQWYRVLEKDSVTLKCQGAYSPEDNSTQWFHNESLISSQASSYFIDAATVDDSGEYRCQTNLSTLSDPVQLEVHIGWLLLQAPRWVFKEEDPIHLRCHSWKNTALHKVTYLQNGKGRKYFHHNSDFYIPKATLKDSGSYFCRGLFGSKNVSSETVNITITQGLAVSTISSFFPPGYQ
Binder,"EC50, block of C3bB cleavage (Bb ELISA) [1] [nM]","EC50, block of Factor B cleavage (western blot) [1] [nM]",binding result (Histidine-tagged FcγRI),binding result [2],binding result (purified human C1q),koff [3] [s⁻¹],kon [3],kon [4],Kd [5] [nM],Kd [6] [nM]
"OG1965 (antibody, IgG1, humanized IgG1 kappa with L234A, L235A, G237A and L443C (EU); also called 34I54I59D84S/54R101V; 34I54I59D84S (heavy) / 54R101V (light)) heavy: EVQLVESGGGLVQPGGSLRLSCAASGYTFTDYYINWVRQAPGKGLEWIGDINPITGDTDYNADFKRRFTFSLDTSKSTAYLQMSSLRAEDTAVYYCTREGPSFAYWGQGTLVTVSSASTKGPSVFPLAPSSKSTSGGTAALGCLVKDYFPEPVTVSWNSGALTSGVHTFPAVLQSSGLYSLSSVVTVPSSSLGTQTYICNVNHKPSNTKVDKKVEPKSCDKTHTCPPCPAPEAAGAPSVFLFPPKPKDTLMISRTPEVTCVVVDVSHEDPEVKFNWYVDGVEVHNAKTKPREEQYNSTYRVVSVLTVLHQDWLNGKEYKCKVSNKALPAPIEKTISKAKGQPREPQVYTLPPSREEMTKNQVSLTCLVKGFYPSDIAVEWESNGQPENNYKTTPPVLDSDGSFFLYSKLTVDKSRWQQGNVFSCSVMHEALHNHYTQKSLSCSPGK light: DIQLTQSPSSLSASVGDRVTITCRSSQTIVHSNGDTYLEWYQQKPGKAPNLLIRKVSNRFSGVPSRFSGSGSGTDFTLTISSLQPEDFATYYCFQGSHVPVTFGQGTKVEIKRTVAAPSVFIFPPSDEQLKSGTASVVCLLNNFYPREAKVQWKVDNALQSGNSQESVTEQDSKDSTYSLSSTLTLSKADYEKHKVYACEVTHQGLSSPVTKSFNRGEC",1.9,7,no binding,no binding,no binding (tested: 10 ug/mL),,,,,
"54I59D / 54G101V (antibody, V domains shown, KCD119 TAF variant; full antibody captured on protein A; also called 54I59D / 4G101V 5) VH: EVQLVESGGGLVQPGGSLRLSCAASGYTFTDYYMNWVRQAPGKGLEWIGDINPITGDTDYNADFKRRFTFSLDTSKSTAYLQMNSLRAEDTAVYYCTREGPSFAYWGQGTLVTVSS VL: DIQLTQSPSSLSASVGDRVTITCRSSQTIVHSNGDTYLEWYQQKPGKAPNLLIGKVSNRFSGVPSRFSGSGSGTDFTLTISSLQPEDFATYYCFQGSHVPVTFGQGTKVEIK",,,,,,9.56e-05,1.15e+07 M⁻¹ s⁻¹ and 5.91e+06 M⁻¹ s⁻¹,2.78e+07 M⁻¹ s⁻¹ and 1.36e+07 M⁻¹ s⁻¹,0.00774,0.00833
